{"source": "patent US20230241072A1", "about": "(ALMAC DISCOVERY, published 2023)", "binders": {"B1": {"name": "P3A1 hFc(442) (Fc fusion)", "chain": "TRVDQTPRTATKETGESLTINCVLTDTSYGLYSTSWFRKNPGTTDWERMSIGGRYVESVNKGAKSFSLRIKDLTVADSATYYCKAREARHPWLRQWYDGAGTVLTVNGGGGSGGGGSGGGGS", "notes": "hIgG1 Fc with S442C (EU); also called P3A1hFc(S442C); not shown: human IgG1 Fc domain"}, "B2": {"name": "P3A1 hFc (Fc fusion)", "chain": "B1 chain", "notes": "VNAR fused to engineered hIgG1 Fc via [G4S]3; also called P3A1hFc(S239C); not shown: human IgG1 Fc domain"}, "B3": {"name": "2V hFc (Fc fusion)", "chain": "B1 chain with R86Q, E87S, A88L, R89A, H90I, P91S, W92T, L93R, R94S, Q95Y", "notes": "Control VNAR from a naive library, no known target; not shown: human IgG1 Fc domain"}, "B4": {"name": "B1V15 hFc (Fc fusion)", "chain": "ASVTQSPRSASKETGESLTITCRVTGANYGLAATYWYRKNPGSSNQERISISGRYSESVNKRTMSFSLRISSLTVEDSATYYCKAYPWGAGAPWLVQWYDGQGTKLEVKGGGGSGGGGSGGGGS", "notes": "Humanised B1 variant fused to hFc; not shown: human IgG1 Fc domain"}, "B5": {"name": "hFc - P3A1 (Fc fusion)", "chain": "GGGGSGGGGSGGGGSTRVDQTPRTATKETGESLTINCVLTDTSYGLYSTSWFRKNPGTTDWERMSIGGRYVESVNKGAKSFSLRIKDLTVADSATYYCKAREARHPWLRQWYDGAGTVLTVN", "notes": "VNAR at the C-terminus of the Fc, by the printed name; not shown: human IgG1 Fc domain"}}, "key": {"[1]": {"molecular_target": "T1, human ROR2-hFc fusion protein (extracellular domain) (human, UniProt Q01974 34-403)", "T1 construct": "extracellular domain; Immobilised by amine coupling; also called hROR2; not shown: human Fc (hFc)", "assay": "SPR (Pioneer) or BLI (Octet K2); ROR2-hFc extracellular domain amine-coupled", "method": "(§1) VNARs were genetically fused to engineered hIgG1 Fc domains via standard [G₄S]₃ that contained a cysteine substitution in the hIgG1 Fc sequence, S239C (EU numbering). The VNAR Fc fusion proteins were expressed as secreted protein in CHO K1 cells and purified from the media using MabSelect™ SuRe™ (Evitria, Switzerland). Purified proteins were analysed by SEC (AdvanceBio, Agilent), SDS PAGE and mass spectrometry to confirm sequence and protein integrity. Binding kinetics were determined using a Pioneer Surface Plasmon Resonance (SPR) instrument (SensiQ/Pall ForteBio), or the Biolayer Interferometry (BLI) Octet K2 system (ForteBio). ROR1-hFc or ROR2-hFc fusion proteins (extracelluar domains) were immobilised in sodium acetate pH5 buffer to COOH₂ chips or AR2G sensors using amine coupling. VNARs and VNAR-Fc molecules were tested at various concentrations and the Ka (M⁻¹ s⁻¹), Kd (s⁻¹) and KD (nM) values were determined using QDat software (SensiQ/Pall ForteBio) or Octet Data Analysis High Throughput software (ForteBio) for Biolayer Interferometry."}, "[2]": {"molecular_target": "T2, human ROR1-hFc fusion protein (extracellular domain) (human, UniProt Q01973 30-406)", "T2 construct": "extracellular domain; Immobilised by amine coupling on COOH2 chips or AR2G sensors; also called hROR1; not shown: human Fc (hFc)", "assay": "SPR (Pioneer) or BLI (Octet K2); ROR1-hFc extracellular domain amine-coupled", "method": "as §1"}}, "note": "Substitutions are numbered along the chain they refer to. Numbers in names are those of the source.", "data": [{"binder": "B1", "values": [{"measurement": "binding result", "setting": "[1]", "result": "no binding"}, {"measurement": "Kd", "setting": "[2]", "result": 0.741, "unit": "nM"}, {"measurement": "koff", "setting": "[2]", "result": 0.0002, "unit": "s⁻¹"}, {"measurement": "kon", "setting": "[2]", "result": 270000, "unit": "M⁻¹ s⁻¹"}]}, {"binder": "B2", "values": [{"measurement": "binding result", "setting": "[1]", "result": "no binding"}, {"measurement": "koff", "setting": "[2]", "result": 0.000564, "unit": "s⁻¹"}]}, {"binder": "B3", "values": [{"measurement": "binding result", "setting": "[1]", "result": "no binding"}, {"measurement": "binding result", "setting": "[2]", "result": "no binding"}]}, {"binder": "B4", "values": [{"measurement": "binding result", "setting": "[1]", "result": "no binding"}, {"measurement": "Kd", "setting": "[2]", "result": 0.726, "unit": "nM"}, {"measurement": "koff", "setting": "[2]", "result": 0.00013, "unit": "s⁻¹"}, {"measurement": "kon", "setting": "[2]", "result": 179000, "unit": "M⁻¹ s⁻¹"}]}, {"binder": "B5", "values": [{"measurement": "binding result", "setting": "[1]", "result": "no binding"}, {"measurement": "koff", "setting": "[2]", "result": 0.000776, "unit": "s⁻¹"}]}]}
